Assay [1] deals with no-cys-DgkA (cysteine-free Escherichia coli diacylglycerol kinase) (Escherichia coli). As to the kind of experiment: solid-state NMR structure; MAS ssNMR, intra- and inter-monomer PRE distance restraints with CS-Rosetta; DgkA reconstituted in bilayers of E. coli membrane total extracts; 272 K.
The target is the same in assay [2]. As to the kind of experiment: SDS-PAGE; DgkA refolded/reassembled in buffer (8 M urea, 0.2% SDS, 0.08% E. coli membrane total extracts, 0.96% OG, pH 7.8).

The values that follow come from article PMC7935881.

For orientation: stoichiometry N means the number of molecules, sites or subunits per partner or assembly.

In the case of “no-cys-DgkA (cysteine-free Escherichia coli diacylglycerol kinase) (enzyme)”, the stoichiometry N in assay [1] and in assay [2] was 3 throughout.
